# Measured values taken from IntAct's records for PubMed 10918185.
# B1: Tumor necrosis factor receptor superfamily member 6 (Homo sapiens), P25445 (parent)
# chain: MLGIWTLLPLVLTSVARLSSKSVNAQVTDINSKGLELRKTVTTVETQNLEGLHHDGQFCHKPCPPGERKARDCTVNGDEPDCVPCQEGKEYTDKAHFSSKCRRCRLCDEGHGLEVEINCTRTQNTKCRCKPNFFCNSTVCEHCDPCTKCEHGIIKECTLTSNTKCKEEGSRSNLGWLCLLLLPIPLIVWVKRKEVQKTCRKHRKENQGSHESPTLNPETVAINLSDVDLSKYITTIAGVMTLSQVKGFVRKNGVNEAKIDEIKNDNVQDTAEQKVQLLRNWHQLHGKKEAYDTLIKDLKKANLCTLAEKIQTIILKDITSDSENSNFRNEIQSLV
# Variants of: B1
# Settings: with ptn13_human PTPN13, Q12923
# Sequence of ptn13_human PTPN13, Q12923 (Q12923 whole entry): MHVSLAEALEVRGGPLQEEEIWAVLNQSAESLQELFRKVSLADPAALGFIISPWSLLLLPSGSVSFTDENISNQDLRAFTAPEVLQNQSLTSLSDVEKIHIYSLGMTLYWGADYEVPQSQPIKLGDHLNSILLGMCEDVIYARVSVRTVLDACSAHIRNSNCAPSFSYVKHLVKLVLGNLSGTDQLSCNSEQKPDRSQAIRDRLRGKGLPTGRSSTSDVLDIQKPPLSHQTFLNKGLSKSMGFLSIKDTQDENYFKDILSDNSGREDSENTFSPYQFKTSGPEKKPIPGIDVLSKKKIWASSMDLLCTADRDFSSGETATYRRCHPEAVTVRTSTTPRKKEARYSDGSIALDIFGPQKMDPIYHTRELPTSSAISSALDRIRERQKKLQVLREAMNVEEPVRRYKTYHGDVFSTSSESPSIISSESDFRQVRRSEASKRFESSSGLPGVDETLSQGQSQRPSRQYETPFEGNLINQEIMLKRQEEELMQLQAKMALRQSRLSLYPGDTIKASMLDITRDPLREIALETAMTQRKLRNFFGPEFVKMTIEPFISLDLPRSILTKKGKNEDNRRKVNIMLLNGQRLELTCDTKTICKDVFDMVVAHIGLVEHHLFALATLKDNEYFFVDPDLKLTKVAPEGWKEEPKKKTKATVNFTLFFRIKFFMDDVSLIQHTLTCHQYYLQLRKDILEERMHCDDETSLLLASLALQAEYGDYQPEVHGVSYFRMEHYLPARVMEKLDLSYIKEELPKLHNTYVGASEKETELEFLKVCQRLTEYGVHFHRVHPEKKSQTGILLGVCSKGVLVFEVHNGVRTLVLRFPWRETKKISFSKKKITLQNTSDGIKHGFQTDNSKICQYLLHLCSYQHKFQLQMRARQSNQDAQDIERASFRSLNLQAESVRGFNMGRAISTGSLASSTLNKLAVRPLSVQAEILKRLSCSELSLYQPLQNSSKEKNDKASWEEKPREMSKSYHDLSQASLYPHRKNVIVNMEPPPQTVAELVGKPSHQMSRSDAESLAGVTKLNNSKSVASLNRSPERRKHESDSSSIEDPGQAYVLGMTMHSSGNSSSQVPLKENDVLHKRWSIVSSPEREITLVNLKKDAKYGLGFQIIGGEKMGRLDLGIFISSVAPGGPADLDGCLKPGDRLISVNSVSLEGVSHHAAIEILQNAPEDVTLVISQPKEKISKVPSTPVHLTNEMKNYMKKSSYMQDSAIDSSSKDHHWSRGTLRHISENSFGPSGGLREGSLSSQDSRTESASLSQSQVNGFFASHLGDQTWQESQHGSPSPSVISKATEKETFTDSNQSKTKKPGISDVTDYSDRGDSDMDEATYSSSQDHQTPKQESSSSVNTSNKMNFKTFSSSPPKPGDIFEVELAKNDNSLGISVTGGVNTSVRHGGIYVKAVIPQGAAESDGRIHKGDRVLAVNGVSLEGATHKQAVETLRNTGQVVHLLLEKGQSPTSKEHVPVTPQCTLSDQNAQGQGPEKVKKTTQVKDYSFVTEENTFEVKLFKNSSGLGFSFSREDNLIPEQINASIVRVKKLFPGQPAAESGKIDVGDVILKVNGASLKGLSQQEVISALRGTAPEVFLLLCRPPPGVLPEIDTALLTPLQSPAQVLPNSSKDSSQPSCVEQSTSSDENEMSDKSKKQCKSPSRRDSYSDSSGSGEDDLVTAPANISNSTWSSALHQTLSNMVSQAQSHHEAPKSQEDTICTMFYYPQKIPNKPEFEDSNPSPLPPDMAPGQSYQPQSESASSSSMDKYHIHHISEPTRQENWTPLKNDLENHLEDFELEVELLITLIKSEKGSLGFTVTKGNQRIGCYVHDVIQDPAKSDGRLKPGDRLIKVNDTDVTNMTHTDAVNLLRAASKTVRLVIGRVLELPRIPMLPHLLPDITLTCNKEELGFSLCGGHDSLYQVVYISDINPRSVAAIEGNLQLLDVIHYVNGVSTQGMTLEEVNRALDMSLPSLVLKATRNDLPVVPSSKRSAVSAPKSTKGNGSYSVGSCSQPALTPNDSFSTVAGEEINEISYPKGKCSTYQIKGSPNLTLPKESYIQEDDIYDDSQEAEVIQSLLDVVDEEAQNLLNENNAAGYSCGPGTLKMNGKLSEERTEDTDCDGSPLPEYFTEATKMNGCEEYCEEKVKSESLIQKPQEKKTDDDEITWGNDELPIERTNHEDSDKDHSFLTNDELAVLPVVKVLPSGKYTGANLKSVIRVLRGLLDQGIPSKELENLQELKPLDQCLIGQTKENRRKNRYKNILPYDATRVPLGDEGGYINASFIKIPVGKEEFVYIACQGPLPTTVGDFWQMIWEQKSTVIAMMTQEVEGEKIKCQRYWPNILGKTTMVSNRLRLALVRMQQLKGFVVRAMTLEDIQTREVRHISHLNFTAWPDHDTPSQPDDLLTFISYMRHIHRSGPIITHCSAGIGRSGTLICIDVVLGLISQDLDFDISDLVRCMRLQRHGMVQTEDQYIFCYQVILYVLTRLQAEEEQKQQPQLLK
row,Variant,effect of a mutation on the interaction
1,S333P,decreasing interaction
